Assay: yeast display, Sf9 membrane polyspecificity reagent, FACS + sequencing; frameworks hold sequencing errors
Method in brief: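 Sorting gates, low and high (top ~1%), were placed on anti-HA fluorescence to track expression and on streptavidin fluorescence to track reagent binding. A clone's polyreactivity label is taken from the gate it came out of. The reagent was 10% biotinylated, detergent-solubilized Sf9 membrane, applied for 1 hour at 4 °C to galactose-induced yeast display cells.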
In the case of “QVQLVESGGGLVQAGGSLRLSCAASGRTFRWYGMGWYRQAPGKEREFVAAISFRGGTTYYADSVKGRFTISRDNAKNTVYLQMNSLKPEDTAVYYCAARYGYYTSDYKYYYWGQGTQVTVSS”, the “polyreactivity (PSR sort gate)” value is reported as “high polyreactivity”.
With “QVQLVESGGGLVQAGGSLRLSCAASGRTFRWYPMGWYRHAPGKEREFVARITWSGGRTYYADSVKGRFTISRDNAKNTVYLQMNSLKPEDTADYYCAAYFVGRYRLEYWGQGTQVTVSS” the “polyreactivity (PSR sort gate)” value was “high polyreactivity”.
For “QVQLVESGGGLVQAGGSLRLSCAASGRTFRYHAMGWYRQAPGKERELVAGISWSGTSTYYADSVKGRFTISRDNAKNTVYLQMNSLKPEDTAVYYCNAVFRYRYDYWGQGTQVTVSS”, the “polyreactivity (PSR sort gate)” value was “high polyreactivity”.
In the case of “QVQLVESGGGLVQAGGSLRLSCAASGRTFRYNALGWYRQAPGTERELVAAISRGTITNYAASVKGRFTISRDNAKNPVYFQLTSLKPEDTAVYYCNAGWGVVIRRYPTYHYWGQGTQVTVSS”, the “polyreactivity (PSR sort gate)” value is reported as “high polyreactivity”.
With “QVQLVESGGGLVQAGGSLRLSCAASGRTFRYNAMGWYRQAPGKERELVAAISSGDRTNYADSVKGRFTISRDNAKNTVYLQMNSLKPEDTAVYYCAAPTDSYYEFDYWGQGTQVTVSS” the “polyreactivity (PSR sort gate)” value was “low polyreactivity”.
For “QVQLVESGGGLVQAGGSLRLSCAASGRTFRYNAMGWYRQAPGKERELVAAITQSGGSTYYADSVKGRFTISRDNAKNTVYLQMNSLKPEDTAVYYCAKVRERINYDYWGQGTQVTVSS”, the “polyreactivity (PSR sort gate)” value was “low polyreactivity”.
For “QVQLVESGGGLVQAGGSLRLSCAASGRTFRYNAMGWYRQAPGKERELVASITSGGSTNYADSVKGRFTISRDNAKNTVYLQMNSLKPEDTAVYYCAADERRPYWLHSIGSGRPFDYWGQGTQVTVSS”, the “polyreactivity (PSR sort gate)” value was “low polyreactivity”.
For “QVQLVESGGGLVQAGGSLRLSCAASGRTFRYNRMGWYRQAPGKERELVAAITGGGSTYYADSVKGRFTISRDNAKNTVYLQMNSLKPEDTPVYYCAKRRWYRYDYWGQGTQVTVSS”, the “polyreactivity (PSR sort gate)” value was “high polyreactivity”.
For “QVQLVESGGGLVQAGGSLRLSCAASGRTFRYNTMGWYRQAPGKERELVARINWSGGSTYYADSVKGRFTISRDNAKNTVYLQMNSLKPEDTAVYYCAAVPILVYRWFQSYTGDYDYWGQGTQVTVSS”, the “polyreactivity (PSR sort gate)” value was “low polyreactivity”.
With “QVQLVESGGGLVQAGGSLRLSCAASGRTFRYNTMGWYRQAPGTERELVATITGSGGSTYYADSVKGRFTISRDNAKNTVYLQMNSLKPEDTAVYYCNALFRLRAYAEMDYWGQGTQVTVSS” the “polyreactivity (PSR sort gate)” value was “high polyreactivity”.
With “QVQLVESGGGLVQAGGSLRLSCAASGRTFRYYAMGWYRPAPGKERELVATITGSGGSTYYADSVKGRFTISRDNAKNTVYLQMNSLKPEDTAVYDCNARKVRYPYRWYVYWGQGTQVTVSS” the “polyreactivity (PSR sort gate)” value was “high polyreactivity”.
For “QVQLVESGGGLVQAGGSLRLSCAASGRTFRYYAMGWYRQAPAKERELVAAINWNGGRTYYADSVKGRFTISRDNAKNTVYLQMNSLKPEDTAVYYCAAYHYRSPVTGDYWGQGTQVTVSS”, the “polyreactivity (PSR sort gate)” value was “high polyreactivity”.
For “QVQLVESGGGLVQAGGSLRLSCAASGRTFRYYAMGWYRQAPGKERELVAAISWNGANTYYADSVKGRFTISRDNAKNTVYLQMNSLKPEDTAVYYCAATYYRWKGYDYWGQGTQVTVSS”, the “polyreactivity (PSR sort gate)” value was “high polyreactivity”.
For “QVQLVESGGGLVQAGGSLRLSCAASGRTFRYYAMGWYRQAPGKERELVAAITSNGGSTYYADSVKGRFTISRDNAKNTVYLQMNSLKPEDTAVYYCNALASRGKYGFDYWGQGTQVTVSS”, the “polyreactivity (PSR sort gate)” value was “high polyreactivity”.
With “QVQLVESGGGLVQAGGSLRLSCAASGRTFRYYAMGWYRQAPGKERELVAAITSSGDSTYYADSVKGRFTISRDNAKNTVYLQMNSLKPEDTAVYYCAAGQPLFYDAEYGYWGQGTQVNVSS” the “polyreactivity (PSR sort gate)” value was “low polyreactivity”.
In the case of “QVQLVESGGGLVQAGGSLRLSCAASGRTFRYYAMGWYRQAPGKERELVAAITSVGGTYYADSVKGRFTISRDNAKNTVYLQMNSLKPEDTAVYYCAVTSYKYRKYDYWGQGTQVTVSS”, the “polyreactivity (PSR sort gate)” value is reported as “high polyreactivity”.

Source: the nanobody polyreactivity screen of Harvey et al. (2022)
